Assays:
Assay in all cases: EC50 of free RNA motif oligo competing protein binding to immobilised probe
GNB2L1 = GNB2L1 (UniProt P63244)
Method in brief: (§1)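 Free RNA oligos (0 nM to 30 μM) competed for 1 h at 4°C in HEK293-FT lysate (2.5 mg protein/well) before a 30 min, 4°C pulldown with the same oligos on NHS-Sepharose beads. Bound proteins were quantified by label-free LC-MS/MS and normalised to the control. Kd was found by multiplying EC50, from a four-parameter log-logistic fit, by a protein-dependent depletion factor.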

IFIT5 = molecular target: T1, IFIT5 (UniProt Q13325)
T1 sequence: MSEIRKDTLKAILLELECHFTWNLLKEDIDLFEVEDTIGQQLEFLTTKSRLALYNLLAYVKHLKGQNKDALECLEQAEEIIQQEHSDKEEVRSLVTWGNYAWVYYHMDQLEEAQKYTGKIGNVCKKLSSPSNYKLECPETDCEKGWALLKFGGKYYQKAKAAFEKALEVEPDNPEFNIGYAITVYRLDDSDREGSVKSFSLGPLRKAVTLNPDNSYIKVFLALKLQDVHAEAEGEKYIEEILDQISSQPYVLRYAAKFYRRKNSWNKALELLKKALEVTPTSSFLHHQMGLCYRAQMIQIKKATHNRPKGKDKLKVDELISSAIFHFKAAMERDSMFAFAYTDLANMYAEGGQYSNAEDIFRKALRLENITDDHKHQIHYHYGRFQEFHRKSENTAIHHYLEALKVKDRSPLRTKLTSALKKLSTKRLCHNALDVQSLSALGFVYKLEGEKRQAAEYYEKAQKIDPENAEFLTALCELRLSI
Method in brief: as §1

SF3B2 = molecular target: T2, SF3B2 (UniProt Q13435)
T2 sequence: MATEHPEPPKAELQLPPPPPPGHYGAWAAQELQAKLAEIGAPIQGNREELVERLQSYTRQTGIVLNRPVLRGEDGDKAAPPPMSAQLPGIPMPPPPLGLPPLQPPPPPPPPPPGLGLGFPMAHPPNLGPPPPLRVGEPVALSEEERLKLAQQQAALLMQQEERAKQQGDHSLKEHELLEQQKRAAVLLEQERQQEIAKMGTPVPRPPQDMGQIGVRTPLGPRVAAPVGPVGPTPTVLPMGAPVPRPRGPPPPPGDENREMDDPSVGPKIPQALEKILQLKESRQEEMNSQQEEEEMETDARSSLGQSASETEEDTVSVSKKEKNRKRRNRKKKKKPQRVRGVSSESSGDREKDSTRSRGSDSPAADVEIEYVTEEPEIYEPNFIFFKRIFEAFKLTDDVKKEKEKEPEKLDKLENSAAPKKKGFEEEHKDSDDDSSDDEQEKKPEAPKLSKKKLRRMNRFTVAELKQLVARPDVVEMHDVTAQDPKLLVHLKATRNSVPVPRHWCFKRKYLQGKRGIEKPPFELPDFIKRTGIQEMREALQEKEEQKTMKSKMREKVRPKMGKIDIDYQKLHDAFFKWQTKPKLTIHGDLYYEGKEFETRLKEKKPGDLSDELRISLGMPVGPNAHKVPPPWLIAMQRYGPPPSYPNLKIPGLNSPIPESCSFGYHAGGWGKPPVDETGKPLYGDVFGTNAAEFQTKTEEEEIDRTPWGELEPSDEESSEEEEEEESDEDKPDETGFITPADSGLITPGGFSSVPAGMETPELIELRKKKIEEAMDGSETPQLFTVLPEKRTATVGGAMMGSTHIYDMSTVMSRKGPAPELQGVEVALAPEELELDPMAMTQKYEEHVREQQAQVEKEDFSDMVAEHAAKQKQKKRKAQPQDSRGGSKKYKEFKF
Method in brief: as §1

SF3B5 = molecular target: T3, SF3B5 (UniProt Q9BWJ5)
T3 sequence: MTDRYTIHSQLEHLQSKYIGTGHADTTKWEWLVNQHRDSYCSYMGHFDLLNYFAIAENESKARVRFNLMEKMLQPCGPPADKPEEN
Method in brief: as §1

FASTKD2 = molecular target: T4, FASTKD2 (UniProt Q9NYY8)
T4 sequence: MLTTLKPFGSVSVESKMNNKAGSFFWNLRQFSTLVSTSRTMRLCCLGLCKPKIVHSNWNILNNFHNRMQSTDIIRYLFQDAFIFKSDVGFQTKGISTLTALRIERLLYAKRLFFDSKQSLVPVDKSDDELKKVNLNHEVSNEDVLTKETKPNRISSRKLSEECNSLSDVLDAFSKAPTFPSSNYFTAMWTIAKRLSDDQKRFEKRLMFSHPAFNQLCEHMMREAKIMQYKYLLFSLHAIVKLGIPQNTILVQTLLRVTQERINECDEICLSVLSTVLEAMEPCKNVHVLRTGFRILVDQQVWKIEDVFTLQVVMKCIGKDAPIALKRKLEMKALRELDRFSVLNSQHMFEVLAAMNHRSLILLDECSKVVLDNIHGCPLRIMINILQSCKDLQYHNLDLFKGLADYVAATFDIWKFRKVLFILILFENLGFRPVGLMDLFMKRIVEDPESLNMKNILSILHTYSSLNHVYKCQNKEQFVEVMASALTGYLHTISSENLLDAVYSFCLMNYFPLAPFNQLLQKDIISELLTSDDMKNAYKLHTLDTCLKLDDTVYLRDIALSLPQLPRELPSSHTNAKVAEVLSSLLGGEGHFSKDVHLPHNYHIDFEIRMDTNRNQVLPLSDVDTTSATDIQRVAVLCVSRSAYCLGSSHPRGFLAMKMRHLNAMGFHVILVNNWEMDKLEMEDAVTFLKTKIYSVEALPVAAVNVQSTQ
Method in brief: as §1

MRPS26 = MRPS26 (UniProt Q9BYN8)
Method in brief: as §1

CUGUCCU gave an EC50 (GNB2L1) of 2.98 µM.
Work on AAUAAA yielded an EC50 (IFIT5) of 1.19 µM, an EC50 (SF3B2) of 1.18 µM and an EC50 (SF3B5) of 1.21 µM.
Sequence UAUUUAU has an EC50 (FASTKD2) of 7.86 µM and an EC50 (MRPS26) of 0.0351 µM.

— the supplement of paper PMC6379048
